Drawing on US20150276762A1 (NVH MEDICINAL, published 2015), this text covers CB/Ag ratio and Mean CB % for two molecules.

For assay [1], the target named is plasma von Willebrand factor of type 2 von Willebrand disease patients (Table I) (human) (UniProt P04275). The experiment in a line: ELISA, coated at 2 µg/ml, plasma of Patient 7 (Type 2); collagen-binding activity over vWF antigen.
The target in assay [2] is plasma von Willebrand factor of type 1 von Willebrand disease patients (human) (UniProt P04275). The experiment in a line: ELISA, coated at 2 µg/ml, plasma of Patient 5 (Type 1). A general note: ELISA stands for enzyme-linked immunosorbent assay.
Assay [3] shares this target. The experiment in a line: ELISA, coated at 2 µg/ml, plasma of Patient 5 (Type 1); collagen-binding activity over vWF antigen.
Assay [4] concerns the target plasma von Willebrand factor of type 2 von Willebrand disease patients (Table I) (human) (UniProt P04275). The assay can be described thus: ELISA, coated at 2 µg/ml, plasma of Patient 7 (Type 2).
For assay [5] the target is unchanged. The assay can be described thus: ELISA, coated at 2 µg/ml, plasma of Patient 8 (Type 2).
Assay [6] concerns the target plasma von Willebrand factor of type 1 von Willebrand disease patients (human) (UniProt P04275). The assay can be described thus: ELISA, coated at 2 µg/ml, plasma of Patient 4 (Type 1); collagen-binding activity over vWF antigen.
For assay [7] the target is unchanged. The assay can be described thus: ELISA, coated at 2 µg/ml, plasma of Patient 4 (Type 1).
The target is the same in assay [8]. The experiment in a line: ELISA, coated at 2 µg/ml, plasma of Patient 3 (Type 1).
In assay [9] the target is plasma von Willebrand factor of type 2 von Willebrand disease patients (Table I) (human) (UniProt P04275). The assay can be described thus: ELISA, coated at 2 µg/ml, plasma of Patient 6 (Type 2).
The target is the same in assay [10]. The experiment in a line: ELISA, coated at 2 µg/ml, plasma of Patient 6 (Type 2); collagen-binding activity over vWF antigen.
For assay [11] the target is unchanged. The experiment in a line: ELISA, coated at 2 µg/ml, plasma of Patient 8 (Type 2); collagen-binding activity over vWF antigen.
Assay [12] concerns the target plasma von Willebrand factor of type 1 von Willebrand disease patients (human) (UniProt P04275). The experiment in a line: ELISA, coated at 2 µg/ml, plasma of Patient 3 (Type 1); collagen-binding activity over vWF antigen.
In assay [13] the target is T1, plasma von Willebrand factor of healthy patients / control (reference) plasma (human, UniProt P04275 764-2813).
T1 construct: Unpurified, in diluted plasma; The read-out also depends on the amount of vWF in the plasma; also called Normal; Controls
The assay can be described thus: ELISA, coated at 2 µg/ml, plasma of Patient 2 (Normal); collagen-binding activity over vWF antigen. The method, then:
(§1) To that end, 100 μl of a solution containing the polypeptide at 2 or 10 μg/ml in phosphate buffer or any other suitable buffer is added in each well and incubated at 22° C. for 18 to 20 hours. After three washes with 200 μl of PBS-0.05% Tween, 200 μl of 1% BSA in phosphate buffer solution (Euromedex, 0.45 μm filter) is added in each well and incubated for 2 hours at room temperature (22° C.). After three washes with 200 μl of PBS-0.05% Tween, 100 μl of various concentrations (expressed in IU/dl) of purified von Willebrand factor (Wilfactin, 100 IU/ml, LFB) and/or of patient plasma diluted in phosphate buffer or any other suitable buffer is incubated for 1.5 hours at room temperature (22° C.). After three new washes, 100 μl of a solution containing a primary anti-vWF antibody coupled with horseradish peroxidase (rabbit anti-human vWF/HRP, DAKO) diluted to 1/8000 in phosphate buffer or any other suitable buffer is incubated for 1 hour at 22° C. and then washed 4 times as described above. 125 μl of tetramethylbenzidine solution (TMB, Sigma) as peroxidase substrate is added and then incubation is carried out in the dark for 10 to a maximum of 45 minutes. The reaction is quenched by adding 125 μl of 2 N HCl (Sigma). Absorbance is quickly measured at 450 nm in a spectrophotometer (Wallac Victor 3). […]

For assay [14], the target named is T2, plasma von Willebrand factor of a patient suspected of having anti-vWF antibody (mimicking type III) (human, UniProt P04275 764-2813, limits assumed).
T2 construct: Almost no vWF antigen in this plasma; also called Patient 9; vWF activity
The experiment in a line: ELISA, coated at 2 µg/ml, plasma of Patient 9 (vWF activity); collagen-binding activity over vWF antigen. As to the method: as §1

The target of assay [15] is T1, plasma von Willebrand factor of healthy …. The assay can be described thus: ELISA, coated at 2 µg/ml, plasma of Patient 1 (Normal); collagen-binding activity over vWF antigen. As to the method: as §1

In the case of “type III collagen (BD Biosciences), used as a reference (from UniProt P02461 154-1221)”, the CB/Ag ratio worked out at 0.48 in assay [1]; 0.77 in [3]; 1.41 in assay [6]; 0.74 in [10]; 0.89 in assay [11]; 0.82 in [12]. Moreover, the Mean CB % worked out at 17% in assay [2]; 19% in assay [4]; 24% in assay [5]; 24% in assay [7]; 37% in assay [8]; 17% in assay [9].

B1: type III collagen (BD Biosciences), used as a reference (other, human, UniProt P02461 154-1221, looked up)
chain: QYDSYDVKSGVAVGGLAGYPGPAGPPGPPGPPGTSGHPGSPGSPGYQGPPGEPGQAGPSGPPGPPGAIGPSGPAGKDGESGRPGRPGERGLPGPPGIKGPAGIPGFPGMKGHRGFDGRNGEKGETGAPGLKGENGLPGENGAPGPMGPRGAPGERGRPGLPGAAGARGNDGARGSDGQPGPPGPPGTAGFPGSPGAKGEVGPAGSPGSNGAPGQRGEPGPQGHAGAQGPPGPPGINGSPGGKGEMGPAGIPGAPGLMGARGPPGPAGANGAPGLRGGAGEPGKNGAKGEPGPRGERGEAGIPGVPGAKGEDGKDGSPGEPGANGLPGAAGERGAPGFRGPAGPNGIPGEKGPAGERGAPGPAGPRGAAGEPGRDGVPGGPGMRGMPGSPGGPGSDGKPGPPGSQGESGRPGPPGPSGPRGQPGVMGFPGPKGNDGAPGKNGERGGPGGPGPQGPPGKNGETGPQGPPGPTGPGGDKGDTGPPGPQGLQGLPGTGGPPGENGKPGEPGPKGDAGAPGAPGGKGDAGAPGERGPPGLAGAPGLRGGAGPPGPEGGKGAAGPPGPPGAAGTPGLQGMPGERGGLGSPGPKGDKGEPGGPGADGVPGKDGPRGPTGPIGPPGPAGQPGDKGEGGAPGLPGIAGPRGSPGERGETGPPGPAGFPGAPGQNGEPGGKGERGAPGEKGEGGPPGVAGPPGGSGPAGPPGPQGVKGERGSPGGPGAAGFPGARGLPGPPGSNGNPGPPGPSGSPGKDGPPGPAGNTGAPGSPGVSGPKGDAGQPGEKGSPGAQGPPGAPGPLGIAGITGARGLAGPPGMPGPRGSPGPQGVKGESGKPGANGLSGERGPPGPQGLPGLAGTAGEPGRDGNPGSDGLPGRDGSPGGKGDRGENGSPGAPGAPGHPGPPGPVGPAGKSGDRGESGPAGPAGAPGPAGSRGAPGPQGPRGDKGETGERGAAGIKGHRGFPGNPGAPGSPGPAGQQGAIGSPGPAGPRGPVGPSGPPGKDGTSGHPGPIGPPGPRGNRGERGSEGSPGHPGQPGPPGPPGAPGPCCGGVGAAAIAGIGGEKAGGFAPYYG
notes: also called native type III collagen
As to B1, the CB/Ag ratio came out at 1.22 in assay [13], 0 in assay [14] and 1.4 in assay [15].
